Assay results as given in paper PMC5882645, “NMR Structure, Dynamics and Interactions of the Integrin β2 Cytoplasmic Tail with Filamin Domain IgFLNa21” (Scientific Reports, 2018).
No end group written: not given here.

B1: C-terminal filamin-binding region (P752-N763) of integrin β2 CT, as it stands in the hybrid IgFLNa21 (peptide)
chain: PLFKSATTTVMN
modifications: also: fused via GASGSGASGS linker to IgFLNa21 N-terminus
notes: also called β2 CT peptide; β2 CT part of hybrid IgFLNa21; source: E. coli rosetta, purified (Ni-NTA, size-exclusion chromatography) as the N-terminal part of the hybrid chain
B2: Synthetic integrin full-length β2-CT (residues 724-769) (peptide, UniProt P05107 724-769, looked up)
chain: KALIHLSDLREYRRFEKEKLKSQWNNDNPLFKSATTTVMNPKFAES
notes: integrin β2 cytoplasmic tail, residues 724-769; also called full length integrin β2 CT; integrin β2 cytoplasmic tail; source: synthetic peptide, bought: GLBioChem (Shanghai), further purified by reverse phase HPLC

Legend:
[1] = biological target: T1, IgFLNa21 domain of filamin A (Gly2236-Ser2329) (UniProt P21333 2236-2329); test: NMR structure; solution structure of the hybrid chain (β2 CT 752-763 joined to IgFLNa21 by the linker …), 300 μM, 298 K; CYANA, refined by X-plor-NIH with explicit water; conditions: both partners purified
T1 construct: filamin A, Ig-like repeat 21 (IgFLNa21), residues Gly2236-Ser2329; The same range also stands as the C-terminal part of the hybrid chain m5 (cloned in pET14b); the rows on the hybrid use m1 for this domain; also called IgFLNa21 filamin; wild-type IgFLNa21; source: E. coli rosetta, synthetic gene in pET24a, 15N/13C-labelled, purified (Ni-NTA, size-exclusion chromatography)
T1 sequence (looked up): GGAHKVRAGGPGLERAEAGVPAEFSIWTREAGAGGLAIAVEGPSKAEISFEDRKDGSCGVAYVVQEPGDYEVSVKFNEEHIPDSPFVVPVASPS

[2] = biological target: T1, IgFLNa21 domain of filamin A …; test: NMR titration; 15N-1H HSQC of IgFLNa21 (100 μM) with sequential additions of peptide at 1:0, 1:1, 1:2 and 1:3 ratios; 298 K; 25 mM sodium phosphate, 5 mM NaCl, 2 mM DTT, 10% D2O, pH 6.5; conditions: both partners purified

Binder	binding result [1]	binding result [2]
B1	binds	
B2		binds
